In patent US20100119506A1 (published 2010):
Positions count from the first letter of the chain named.

Legend:
[1] = target: labeled peptide representing the N-terminus of PAR-2 (FRET assay); assay: cell-based or functional assay
[2] = target: T1, PAR-4 peptide (SEQ ID NO:44); assay: ELISA on peptide
T1 peptide: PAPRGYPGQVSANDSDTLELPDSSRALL

[3] = target: T2, PAR-2 peptide (SEQ ID NO:42) coupled to Transferrin as carrier (coupled to Transferrin as carrier); assay: ELISA on peptide
T2 construct: Transferrin carrier not further described
T2 peptide: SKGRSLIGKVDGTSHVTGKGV

[4] = target: T3, Rat PAR-2 peptide (rat); assay: Kinexa, peptide in solution
T3 peptide: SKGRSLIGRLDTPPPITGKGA
Description: (§1) Binding to peptide in solution was determined by Kinexa technology.

[5] = target: T4, Murine PAR-2 peptide (murine); assay: Kinexa, peptide in solution
T4 construct: also called mouse PAR-2 peptide
T4 peptide: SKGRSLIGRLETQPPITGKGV
Description: as §1

[6] = target: T5, Cynomolgus PAR-2 peptide (cynomolgus); assay: Kinexa, peptide in solution
T5 peptide: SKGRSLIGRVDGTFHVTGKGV
Description: as §1

[7] = target: T4, Murine PAR-2 peptide; assay: Mouse PAR-2 Peptide Binding (Kinexa)
Description: as §1

[8] = target: T3, Rat PAR-2 peptide; assay: Rat PAR-2 Peptide Binding (Kinexa)
Description: as §1

[9] = target: T6, Human PAR-2 on cells (human, UniProt P55085 26-397); assay: cell binding of IgG4_Pro, HEK-PAR-2 (#3)
T6 construct: also called HEK-PAR-2 (#3); human PAR-2 transfected HEK293 cells
T6 sequence: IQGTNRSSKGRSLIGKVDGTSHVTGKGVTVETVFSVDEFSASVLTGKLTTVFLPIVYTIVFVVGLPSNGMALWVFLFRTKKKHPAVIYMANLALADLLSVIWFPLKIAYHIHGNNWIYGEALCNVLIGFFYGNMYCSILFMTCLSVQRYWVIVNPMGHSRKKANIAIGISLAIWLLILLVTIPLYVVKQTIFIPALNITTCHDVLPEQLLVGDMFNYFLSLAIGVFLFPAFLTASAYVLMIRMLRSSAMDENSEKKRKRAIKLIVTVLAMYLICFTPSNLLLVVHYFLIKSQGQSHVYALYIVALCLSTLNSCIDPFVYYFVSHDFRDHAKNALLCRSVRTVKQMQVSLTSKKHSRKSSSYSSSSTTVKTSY

[10] = target: T6, Human PAR-2 on cells; assay: cell-based or functional assay
[11] = target: T7, FLAG-tagged PAR-2 over-expressed on HEK transfectants (Homo sapiens (Human), UniProt P55085 37-397); assay: cell-based or functional assay
T7 sequence: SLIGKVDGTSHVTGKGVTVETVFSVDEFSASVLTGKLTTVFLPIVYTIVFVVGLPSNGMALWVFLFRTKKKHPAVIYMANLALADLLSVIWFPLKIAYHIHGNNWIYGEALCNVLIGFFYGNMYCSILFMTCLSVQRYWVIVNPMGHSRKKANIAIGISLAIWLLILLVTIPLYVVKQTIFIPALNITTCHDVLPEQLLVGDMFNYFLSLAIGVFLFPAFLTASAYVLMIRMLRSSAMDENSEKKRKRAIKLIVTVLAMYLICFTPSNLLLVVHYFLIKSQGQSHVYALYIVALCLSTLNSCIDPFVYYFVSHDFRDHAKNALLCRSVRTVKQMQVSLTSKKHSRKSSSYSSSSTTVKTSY

[12] = target: T8, PAR-1 peptide (SEQ ID NO:43); assay: ELISA on peptide
T8 peptide: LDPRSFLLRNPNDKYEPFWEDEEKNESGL

[13] = target: T6, Human PAR-2 on cells; assay: binding of IgG4p to PAR-2 transfected HEK cells (HEK-PAR-2 #3)
[14] = target: T6, Human PAR-2 on cells; assay: binding to human PAR-2 transfected HEK293 cells
[15] = target: T9, Human PAR-2 peptide (SEQ ID NO:1, Residues 33-54) (human); assay: Kinexa, peptide in solution
T9 peptide: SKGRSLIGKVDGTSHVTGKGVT
Description: as §1

[16] = target: T10, Mouse PAR-2 (endogenous, LLC cells and mouse aortic rings) (mouse, UniProt P55086 39-399); assay: cell-based or functional assay
T10 sequence (looked up): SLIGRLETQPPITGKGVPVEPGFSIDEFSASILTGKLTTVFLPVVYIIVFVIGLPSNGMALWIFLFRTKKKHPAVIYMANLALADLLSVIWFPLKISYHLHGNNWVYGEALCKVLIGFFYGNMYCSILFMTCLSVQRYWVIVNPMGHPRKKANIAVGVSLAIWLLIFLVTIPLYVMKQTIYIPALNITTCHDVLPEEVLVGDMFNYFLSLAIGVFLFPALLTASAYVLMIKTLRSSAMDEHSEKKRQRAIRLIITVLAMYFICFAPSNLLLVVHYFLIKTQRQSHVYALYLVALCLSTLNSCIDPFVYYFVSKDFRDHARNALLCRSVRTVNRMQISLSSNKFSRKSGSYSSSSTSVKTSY

[17] = target: T11, Rat PAR-2 (endogenous, ARIP cells and rat aortic rings) (rat, UniProt Q63645 37-397); assay: cell-based or functional assay
T11 sequence (looked up): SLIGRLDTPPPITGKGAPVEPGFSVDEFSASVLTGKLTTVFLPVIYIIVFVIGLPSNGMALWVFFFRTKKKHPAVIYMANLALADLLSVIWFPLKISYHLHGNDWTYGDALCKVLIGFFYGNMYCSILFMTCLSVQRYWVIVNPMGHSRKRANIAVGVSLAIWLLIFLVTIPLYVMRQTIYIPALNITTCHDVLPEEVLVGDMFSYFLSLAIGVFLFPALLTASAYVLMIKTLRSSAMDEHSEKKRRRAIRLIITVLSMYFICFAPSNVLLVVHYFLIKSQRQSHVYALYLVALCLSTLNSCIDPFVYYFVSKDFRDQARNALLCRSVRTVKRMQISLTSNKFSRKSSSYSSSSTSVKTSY

[18] = target: T6, Human PAR-2 on cells; assay: cell-based or functional assay; remark: listed apart in the source
[19] = target: T6, Human PAR-2 on cells; assay: cell binding, Fab against IgG4p of the same clone
[20] = target: T6, Human PAR-2 on cells; assay: binding of Fab to PAR-2 transfected HEK cells (HEK-PAR-2 #3)

B1: Ab4996 IgG4_Pro (antibody, V domains shown)
VH: QVQLVESGGGLVQPGGSLRLSCAASGFTFSNHAMHWVRQAPGKGLEWVSAISHPGKFTYYADSVKGRFTISRDNSKNTLYLQMNSLRAEDTAVYYCARHGDGMDYFDFWGQGTLVTVSS
VL: DIELTQPPSVSVAPGQTARISCSGDNIGTKYVYWYQQKPGQAPVLVIYDDNNRPSGIPERFSGSNSGNTATLTISGTQAEDEADYYCQSYDSQTMVFGGGTKLTVLG
notes: IgG4_Pro (human IgG4 constant regions, Ser241Pro hinge), lambda; also called IgG4p Ab4996
Question: What does the source list for B1?
Answer: FRET Peptide Cleavage IC50 [1]: < 30000 pM; binding result [2]: no binding; binding result [3]: binds

B2: Antibody Par-D (antibody, V domains shown)
VH: B1 VH with Q3E
VL: B1 VL
notes: Codon-optimized version of Ab4996
Question: How did the Kd [4] turn out when B2 was run?
Answer: Its Kd is 40 pM.

Question: And the Kd [5]?
Answer: Its Kd is 420 pM.

Question: And the Kd [6]?
Answer: Its Kd is 140 pM.

Question: And the Kd [7]?
Answer: The Kd was 420 pM.

Question: And the Kd [8]?
Answer: The Kd was 40 pM.

B3: Ab4999 IgG4_Pro (antibody, V domains shown)
VH: QVQLVESGGGLVQPGGSLRLSCAASGFTFSSYAMNWVRQAPGKGLEWVSTISYSSSATSYADSVKGRFTISRDNSKNTLYLQMNSLRAEDTAVYYCARIQNDPMDVWGQGTLVTVSS
VL: DIELTQPPSVSVAPGQTARISCSGDNLGKKYVQWYQQKPGQAPVLVIYDDSNRPSGIPERFSGSNSGNTATLTISGTQAEDEADYYCQTWDYSSIRDETNVFGGGTKLTVLG
notes: IgG4_Pro (human IgG4 constant regions, Ser241Pro hinge), lambda; also called IgG4p Ab4999
Question: For B3, which EC50 [9] is on record?
Answer: The EC50 was 200 pM.

Question: What about the “FLIPR A549 cells IC50” value [10] of the same binder?
Answer: Its value is 3100 pM.

Question: What about the “FRET Peptide Cleavage IC50” value [1] of the same binder?
Answer: The value was less than 30000 pM.

Question: What about the “FLAG Cell-Based Cleavage Approx. IC50” value [11] of the same binder?
Answer: The value was less than 1000 pM.

Question: Does B3 bind [2]?
Answer: Result: no binding

Question: Does B3 bind [3]?
Answer: Result: binds

Question: Does B3 bind [12]?
Answer: Result: no binding

Question: And the EC50 [13]?
Answer: The EC50 was 200 pM.

B4: Antibody Par-B (antibody, V domains shown)
VH: B3 VH with Q3E
VL: B3 VL
notes: Codon-optimized version of Ab4999 made in CHO-DG44
Question: For B4, which EC50 [14] is on record?
Answer: The EC50 was roughly 300 pM.

Question: And the Kd [15]?
Answer: The Kd was 80 pM.

Question: And the Kd [4]?
Answer: Its Kd is 20 pM.

Question: What about the Kd [5] of the same binder?
Answer: The Kd was 80 pM.

Question: What about the Kd [6] of the same binder?
Answer: The Kd was 40 pM.

Question: What about the “Mouse Aortic Ring Assay, shift of EC50 (Trypsin)” value [16] of the same binder?
Answer: The value was roughly 5 fold.

Question: And the “Mouse Cell Line FLIPR IC50” value [16]?
Answer: Its value is roughly 400 pM.

Question: What about the “Rat Aortic Ring Assay, shift of EC50 (Trypsin)” value [17] of the same binder?
Answer: The value was roughly 8 fold.

Question: And the Kd [7]?
Answer: Its Kd is 80 pM.

Question: What about the “fold vs. human peptide” value [7] of the same binder?
Answer: The value was 1 fold.

Question: What about the “Human Keratinocyte/IL-8 assay IC50” value [18] of the same binder?
Answer: The value was roughly 100000 pM.

Question: And the Kd [8]?
Answer: Its Kd is 20 pM.

Question: And the “fold vs. human peptide” value [8]?
Answer: The value was 4 fold.

B5: Ab5151 IgG4_Pro (cross-cloned: light chain of Ab4999 with heavy chain of Ab5007) (antibody, V domains shown)
VH: B3 VH with T50A, Y53F, S55G, S56H, A57L, S59G
VL: B3 VL
notes: IgG4_Pro format
Question: For B5, which EC50 [9] is on record?
Answer: The EC50 was 400 pM.

Question: What about the “FLIPR A549 cells IC50” value [10] of the same binder?
Answer: The value was 4000 pM.

Question: What about the “FRET Peptide Cleavage IC50” value [1] of the same binder?
Answer: The value was less than 30000 pM.

Question: And the “FLAG Cell-Based Cleavage Approx. IC50” value [11]?
Answer: Its value is less than 1000 pM.

Question: Does B5 bind [2]?
Answer: Result: no binding

Question: Does B5 bind [3]?
Answer: Result: binds

Question: Does B5 bind [12]?
Answer: Result: no binding

B6: Antibody Par-C (antibody, V domains shown)
VH: B3 VH with Q3E, T50A, Y53F, S55G, S56H, A57L, S59G
VL: B3 VL
notes: Codon-optimized version of Ab5151
Question: For B6, which Kd [15] is on record?
Answer: The Kd was 30 pM.

Question: And the Kd [5]?
Answer: The Kd was 30 pM.

B7: Ab4999 Fab (Fab, V domains shown)
VH: B3 VH with Q3E
VL: B3 VL
notes: Fab
Question: Which results are given for B7?
Answer: Ratio of EC50 Fab / EC50 IgG [19]: 0.3; EC50 [20]: 60 pM
